In patent US20230312651A1, “Cyclic Peptide, Peptide Complex, and Drug Composition Containing Said Cyclic Peptide and/or Said Peptide Complex” (The University of Tokyo, priority 2020, published 2023):
“Also recorded” adds a separate entry of the source. Starred links: 1 amine or outer side, 2 acyl side, 3 side chain; linkers in the order of their positions; H or OH if unused. Positions of bridges follow the written chain, without caps; N, C: chain ends. Non-standard residues stand in square brackets, D forms with d. Chains are numbered I, II in the order given. No end group written: not given here. NH(CH2CH2O)6CH2CO = O=C(COCCOCCOCCOCCOCCOCCN[*:1])[*:2]; Dap = NC[C@H](N)C(=O)O

Experiments:
[1] = tested on: 40 RTKs (receptor tyrosine kinases); experiment: Phospho-RTK array evaluation (off-target activity); type: cell-based, mouse; settings: ANA-12 100 µM added 30 minutes before DiTrbL3 1 nM
Description: Comprehensive study of the phosphorylated tyrosine kinase receptor was conducted using a phospho-RTK array in accordance with the manufacturer’s protocol (Proteome Profiler mouse Phospho-RTK Array Kit, ARY014, R&D Systems). The phosphorylation level was evaluated by pixel density and quantified by Image J Software.

Akt = experiment: Western blot of phosphorylated Akt (S473) in primary hippocampal neurons; type: cell-based, mouse; settings: ANA-12 100 µM added 30 minutes before 1 nM DiTrbL3; p<0.05
Description: (§1) After washing with 0.1 M PBS twice, cells were lysed in a radio-immunoprecipitation assay (RIPA) buffer containing 50 mM Tris-HCI (pH 7.4), 150 mM NaCl, 2 mM EDTA, 1% Nonidet P-40, 0.5% Na-deoxycholate, 0.1% SDS, 50 mM NaF, 0.2 mM Na3VO4, 10 µg/mL aprotinin, 10 µg/mL leupeptin, and 1 mM phenylmethylsulfonyl fluoride on ice for 30 minutes. After ultrasonic treatment and centrifugation at 20,000 ×g for 30 minutes, the supernatant was subjected to SDS-PAGE. Protein amount was quantified using Bicinchoninic Acid Kit (BCA-1, Sigma).
(§2) The cell lysate (protein amount: 20 µg in P-TrkB, 10 µg in TrkB, and 5 µg in Akt and Erk) was separated using 8% polyacrylamide gel and transferred to a polyvinylidene difluoride membrane (Merck Millipore, Massachusetts, USA). […]
(§3) Finally, after the resulting membrane was washed with TBST, an immune-positive bands were detected by a chemiluminescence method using a Luminata Crescendo HPR substrate (Merck Millipore). The relative phosphorylation level of each kinase was calculated as a ratio of phosphorylated kinase/all kinases.

Erk½ = experiment: Western blot of phosphorylated Erk½ in primary hippocampal neurons; type: cell-based, mouse; settings: ANA-12 100 µM added 30 minutes before 1 nM DiTrbL3; p<0.01
Description: as §1, §2, §3

[2] = biological target: T1, extracellular domain of hTrkC (Homo sapiens, UniProt Q16288); experiment: SPR binding kinetics (Biacore T200), hTrkC; settings: Homodimer (peptide complex), 1:1 binding model
T1 construct: the extracellular domain of hTrkA, hTrkC, and hTrkB
Description: (§4) With respect to the binding kinetics (binding affinity (dissociation constant) KD) of the cyclic peptides towards the extracellular domain of hTrkA, hTrkC, and hTrkB (which will hereinafter be called “hTrkA-C proteins”, collectively) immobilized on a sensor chip via a His6-tag, quantitative measurements making use of surface plasmon resonance (SPR) were carried out to evaluate the binding intensity and selectivity of the cyclic peptide to hTrkB, compared with that to hTrkA and hTrkC.
(§5) The binding kinetics of each peptide towards the hTrkA-C proteins were determined using Biacore T200 (GE Healthcare). The buffer used was HBS-P+ (10 mM HEPES, 150 mM NaCl, and 0.05 vol% surfactant P20, pH 7.4) containing 0.1 vol% DMSO and 1 mM b-dodecyl-maltoside. 100 nM hTrkA-C proteins were immobilized on a Ni^2+ treated NTA chip in accordance with the manufacturer’s instructions (baseline response 1000 to 3000 refraction units). Peptides were injected as an analyte at a flow rate of […] and binding kinetics was modelled using a 1:1 binding model.

[3] = biological target: extracellular domain of hTrkA (Homo sapiens, UniProt P04629); experiment: SPR binding kinetics (Biacore T200), hTrkA; design: the extracellular domain of hTrkA, hTrkC, and hTrkB; settings: Homodimer (peptide complex), 1:1 binding model
Description: as §4, §5

[4] = biological target: T2, extracellular domain of hTrkB (human, UniProt Q16620 32-430); experiment: RaPID affinity selection, 5 rounds, on beads carrying TrkB extracellular domain; sequencing
T2 construct: extracellular domain; Immobilised on a Ni2+-treated NTA sensor chip through the His6-tag for SPR; fixed on His pulldown Dynabeads at 200 nM for the RaPID selection; also called human TrkB; TrkB extracellular domain; not shown: His6-tag
Description: Next, the peptide-mRNA/cDNA conjugate libraries thus obtained were subjected to affinity selection. First, as control selection, the peptide-mRNA/cDNA conjugate libraries were passed three times through His pulldown Dynabeads (Life Technologies) (each passage for 10 minutes under the condition of 4° C.). The above process is called “pre-clearance” or negative selection and is performed to remove undesired binding to beads. […] The process is called “positive selection”.
By heating at 95° C. for 5 minutes, the cDNAs were eluted from the beads and a portion of the eluted cDNAs was evaluated by quantitative PCR using Sybr Green I and thermal cycler (LightCycler (Roche)). The remaining portion of the cDNAs was amplified by PCR and used for the transcription of the mRNA library used for affinity selection in the next round.
One round consisted of preparation of a library, pre-clearance, and positive selection, and the round was performed 5 times. […] The collected cDNAs were amplified by PCR, purified using a column (NucleoSpin (Machery-Nagel)), and sequenced using a high through-put sequencer (MiSeq (Illumina)). Data analysis was performed using a software (CLC Sequence Viewer 7 (Qiagen)).

T2 sequence (Q16620 32-430): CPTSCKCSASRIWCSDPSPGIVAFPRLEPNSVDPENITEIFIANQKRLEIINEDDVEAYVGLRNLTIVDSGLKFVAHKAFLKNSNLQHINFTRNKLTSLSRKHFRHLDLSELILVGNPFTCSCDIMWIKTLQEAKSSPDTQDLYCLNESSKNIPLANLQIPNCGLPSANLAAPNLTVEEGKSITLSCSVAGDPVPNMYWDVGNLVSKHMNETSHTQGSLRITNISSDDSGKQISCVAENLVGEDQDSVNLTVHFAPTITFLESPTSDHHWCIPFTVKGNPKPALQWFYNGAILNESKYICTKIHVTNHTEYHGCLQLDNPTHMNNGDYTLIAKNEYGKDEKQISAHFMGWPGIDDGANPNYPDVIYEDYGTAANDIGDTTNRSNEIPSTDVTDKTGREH
Chain of extracellular domain of hTrkA (P04629 33-423 limits assumed): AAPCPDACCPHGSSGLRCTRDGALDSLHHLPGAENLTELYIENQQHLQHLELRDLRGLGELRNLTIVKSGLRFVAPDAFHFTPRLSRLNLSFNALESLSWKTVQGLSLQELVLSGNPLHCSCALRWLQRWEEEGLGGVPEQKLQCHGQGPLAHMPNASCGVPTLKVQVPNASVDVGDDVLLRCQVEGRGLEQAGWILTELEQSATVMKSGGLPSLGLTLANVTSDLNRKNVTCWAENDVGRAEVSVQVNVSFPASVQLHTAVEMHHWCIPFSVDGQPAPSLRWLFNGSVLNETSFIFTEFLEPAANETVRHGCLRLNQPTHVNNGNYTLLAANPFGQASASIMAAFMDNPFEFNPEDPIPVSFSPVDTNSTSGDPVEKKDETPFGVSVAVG
T1 sequence (Q16288 32-429 limits assumed): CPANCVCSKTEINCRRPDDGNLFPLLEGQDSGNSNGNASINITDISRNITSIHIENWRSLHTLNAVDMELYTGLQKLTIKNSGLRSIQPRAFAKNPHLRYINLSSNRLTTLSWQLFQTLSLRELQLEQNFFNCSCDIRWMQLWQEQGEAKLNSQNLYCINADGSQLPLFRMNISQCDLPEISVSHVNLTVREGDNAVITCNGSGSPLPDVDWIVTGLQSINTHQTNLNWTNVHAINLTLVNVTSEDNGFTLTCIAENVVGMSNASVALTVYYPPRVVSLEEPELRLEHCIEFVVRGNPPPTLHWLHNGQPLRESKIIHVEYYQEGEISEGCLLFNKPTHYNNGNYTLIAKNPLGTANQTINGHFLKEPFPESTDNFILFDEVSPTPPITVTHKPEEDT

Molecule: O=C(Nc1ccccc1C(=O)NC1CCCCNC1=O)c1cc2ccccc2s1 (stereo not drawn) [ANA-12, reference compound]
- TrkB phosphorylation signal induced by DiTrbL3, RTK array and densitometric analysis [1]: reduction in TrkB phosphorylation signal
- phosphorylation of Akt induced by DiTrbL3 (Akt): the phosphorylation activity decreased; also recorded: suppressed
- phosphorylation of Erk½ induced by DiTrbL3 (Erk½): the phosphorylation activity decreased; also recorded: suppressed

Molecule: I: {CH2CO}-YRHNSYEASAFWCGSGSGS[NH(CH2CH2O)6CH2CO][Dap]-NH2 / II: {CH2CO}-YRHNSYEASAFWCGSGSGS[NH(CH2CH2O)6CH2CO] (amide I:21-II:C; thioether I:N-I:13, II:N-II:13) [DiTrbL1]
- binding affinity KD, TrkC [2]: N.B.
- binding affinity KD, TrkA [3]: N.B.

B1: SEQ ID NO 1 (peptide)
peptide: Ac-YRHNSYEASAFWCGSGSGS
modifications: thioether (positions not given here); not fully specified (residue 1, bridges)
notes: In the selection it stood as a peptide-mRNA/cDNA conjugate joined through a puromycin linker
- binding result [4]: binds

B2: SEQ ID NO 3 (peptide)
peptide: Ac-YRHSSYEASAFWCGSGSGS
modifications: thioether (positions not given here); not fully specified (residue 1, bridges)
notes: as for B1
- binding result [4]: binds

B3: SEQ ID NO 5 (peptide)
peptide: Ac-YRHNSYEASTFWCGSGSGS
modifications: thioether (positions not given here); not fully specified (residue 1, bridges)
notes: as for B1
- binding result [4]: binds

B4: SEQ ID NO 2 (peptide)
peptide: Ac-YRHNSYKASAFWCGSGSGS
modifications: thioether (positions not given here); not fully specified (residue 1, bridges)
notes: as for B1
- binding result [4]: binds

B5: SEQ ID NO 4 (peptide)
peptide: Ac-YRHDSYEASAFWCGSGSGS
modifications: thioether (positions not given here); not fully specified (residue 1, bridges)
notes: as for B1
- binding result [4]: binds

B6: SEQ ID NO 6 (peptide)
peptide: Ac-YRHNSYEASAFCCGSGSGS
modifications: thioether (positions not given here); not fully specified (residue 1, bridges)
notes: as for B1
- binding result [4]: binds

B7: SEQ ID NO 13 (peptide)
peptide: Ac-YRLHQWINTFRCGSGSGS
modifications: thioether (positions not given here); not fully specified (residue 1, bridges)
notes: as for B1
- binding result [4]: binds

B8: SEQ ID NO 8 (peptide)
peptide: Ac-YLQPKFKFWCGSGSGS
modifications: thioether (positions not given here); not fully specified (residue 1, bridges)
notes: as for B1
- binding result [4]: binds

B9: SEQ ID NO 12 (peptide)
peptide: Ac-YRIHPWITTYRCGSGSGS
modifications: thioether (positions not given here); not fully specified (residue 1, bridges)
notes: as for B1
- binding result [4]: binds

B10: SEQ ID NO 7 (peptide)
peptide: Ac-YLRPRYKFWCGSGSGS
modifications: thioether (positions not given here); not fully specified (residue 1, bridges)
notes: as for B1
- binding result [4]: binds

B11: SEQ ID NO 9 (peptide)
peptide: Ac-YAHEGYKNSAFWCGSGSGS
modifications: thioether (positions not given here); not fully specified (residue 1, bridges)
notes: as for B1
- binding result [4]: binds

B12: SEQ ID NO 11 (peptide)
peptide: Ac-YKYKFWAYIPTNCGSGSGS
modifications: thioether (positions not given here); not fully specified (residue 1, bridges)
notes: as for B1
- binding result [4]: binds

B13: SEQ ID NO 10 (peptide)
peptide: Ac-YRFWQTPRFRLCGSGSGS
modifications: thioether (positions not given here); not fully specified (residue 1, bridges)
notes: as for B1
- binding result [4]: binds
